Laboratory results as given in patent publication EP1034789A1.

Tests used:
[1] = molecular target: cellular receptor of fMLP (human); assay: 3H-fMLP bound to cells, Exp. 1, no inhibitor
[2] = molecular target: cellular receptor of fMLP (human); assay: 3H-fMLP bound to cells, Exp. 1, with unlabeled fMLP
[3] = molecular target: cellular receptors of MIP-1α on primary human monocytes and THP-1 cells (human); assay: 125I-MIP-1α bound to THP-1 cells, Exp. 3, no inhibitor
[4] = molecular target: cellular receptors of MIP-1α on primary human monocytes and THP-1 cells (human); assay: 125I-MIP-1α bound to human monocytic cells, Exp. 1, no inhibitor
[5] = molecular target: cellular receptors of MIP-1α on primary human monocytes and THP-1 cells (human); assay: 125I-MIP-1α bound to primary human monocytes, Exp. 1, no inhibitor
[6] = molecular target: cellular receptors of MIP-1α on primary human monocytes and THP-1 cells (human); assay: 125I-MIP-1α bound to primary human monocytes, Exp. 2, no inhibitor
[7] = molecular target: cellular receptors of MIP-1α on primary human monocytes and THP-1 cells (human); assay: 125I-MIP-1α bound to THP-1 cells, Exp. 3, 6500X excess unlabeled MIP-1α (background control)
[8] = molecular target: cellular receptors of MIP-1α on primary human monocytes and THP-1 cells (human); assay: 125I-MIP-1α bound to primary human monocytes, Exp. 1, 6500X excess unlabeled MIP-1α (background control)
[9] = molecular target: cellular receptors of MIP-1α on primary human monocytes and THP-1 cells (human); assay: 125I-MIP-1α bound to primary human monocytes, Exp. 2, 6500X excess unlabeled MIP-1α (background control)
[10] = molecular target: cellular receptors of MIP-1α on primary human monocytes and THP-1 cells (human); assay: 125I-MIP-1α bound to human monocytic cells, Exp. 1, 6500X molar excess unlabeled MIP-1α (background control)

Surface Bound fMLP [1] [cpm]	Surface Bound fMLP [2] [cpm]	Substance	Surface Bound MIP-1α [3] [cpm]	Surface Bound MIP-1α [4] [cpm]	Surface Bound MIP-1α [5] [cpm]	Surface Bound MIP-1α [6] [cpm]	Surface Bound MIP-1α [7] [cpm]	Surface Bound MIP-1α [8] [cpm]	Surface Bound MIP-1α [9] [cpm]	Surface Bound MIP-1α [10] [cpm]
374	132	fMLP (peptide)	–	–	–	–	–	–	–	–
–	–	human MIP-1α (from UniProt P10147 24-92) (ligand)	9940	12200	4700	7710	1040	470	410	444
